According to the supplement of paper PMC10567573:

B1: KRT18 (parent)
chain: KSQDLAKIMADIRAQYDELARKNR

Variants of: B1
Test: protein stability index of a GFP-peptide fusion (GPS, HEK-293T) (PSI 1-6); higher = more stable
Details: c terminus: a fixed tail appended
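Note: lentivirally expressed fusions sorted by FACS into six bins by GFP to DsRed ratio, PSI derived from sequencing read proportions per bin multiplied by bin number.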

Protein stability index of substitutions, site by site:
S2: M 2.04; T 2.7; Y 2.04; I 2.11; E 3.02; F 1.84; K 3.06; H 2.63; V 1.9; P 2.43; N 2.41; L 1.73; W 1.86; R 2.56; A 2.2; Q 2.46; D 2.85; C 2.14; G 2.59
D4: N 2.6; G 3.18; P 2.68; H 3.03; Q 2.42; M 1.99; F 2.25; C 1.64; R 2.68; L 1.72; Y 1.88; V 1.61; W 2.04; S 2.38; T 1.76; E 2.5; K 1.98; I 2.1; A 2.13
K7: Q 2.43; A 2.41; E 2.47; V 3.32; Y 1.86; P 3.88; W 2.14; L 2.37; T 2.67; I 2.16; M 2.48; H 2.73; C 2.63; S 2.46; F 1.9; D 2.76; R 2.5; G 3.14; N 2.86
Q3: R 2.57; S 2.69; K 2.37; P 2.75; C 2.02; F 2.46; V 2.34; T 2.76; L 2.49; G 2.72; H 2.13; W 1.71; M 2.41; I 2.35; A 2.31; Y 1.88; N 3.25; D 3.09; E 2.89
K1: T 2.58; V 2.71; W 2.28; Y 2.2; S 2.58
M9: W 2.38; A 3.71; E 4.63; P 4.67; N 4.11; Y 3.08; C 3.14; Q 3.64; F 2.77; I 2.03; G 4.12; L 2.23; D 4.72; S 3.89; V 2.73; H 3.68; K 3.8; T 3.66; R 3.8
A10: H 2.75; M 2.3; I 2.73; C 2.91; G 3.81; L 2.68; F 2.41; K 2.91; E 3.18; D 2.57
I8: K 3.79; P 4.5; Q 4.1; Y 3.23; G 4.54; S 4.34; F 1.64; D 4.13; M 3.42; E 4.17; H 3.8; T 3.27; W 2.4; C 3.37; L 3.13; R 3.35; A 3.06; N 3.86; V 2.99
A6: E 2.78; H 2.71; L 2.65; G 3.31; M 2.33; P 3.61; I 2.01; C 2.66; N 3.01; Q 3.14; W 1.98; K 2.28; D 2.8; V 2.29; R 2.54; T 2.94; F 2.17; S 3.04; Y 2.33
L5: D 4.16; W 2.62; Y 2.19; Q 4.06; R 3.83; T 3.51; M 2.99; C 3.02; S 4.1; F 2.45; P 3.59; H 3.83; E 3.94; K 3.75; A 3.72; N 4.26; V 3.24; I 2.38; G 4.49
